The target of the experiment is human MN protein, entire extra-cellular domain with a C-terminal histag, expressed in HKB-11 cells (human, UniProt Q16790 38-414). As to the kind of experiment: BIAcore; crude Fab. On the technique in general: SPR reads the build-up and loss of mass on a sensor chip optically.

B1: 5aa3 Crude Fab (antibody, V domains shown)
VH: ELVQSGAEVKKPGESLKISCKGSGYSFTGYISWVRQAPGKGLEWMGIIYPGDSYTNYSPSFQGQVTISADKSISTAYLQWSSLKASDTAMYYCARYSGPNWDVMDSWGQGTLVTVSS
VL: DIVLTQPPSVSGAPGQRVTISCSGSSSNIGSYYVNWYQQLPGTAPKLLIYADDKRPSGVPDRFSGSKSGTSASLAITGLQSEDEADYYCQSYDSTKDDSVFGGGTKL
Regarding B1, the affinity, expressed as Kd, was 25 nM.

The values are drawn from patent US20100129315A1 (published 2010).
